From the RNAGym collection of RNA variant scans (doi:10.7554/elife.80360)

B1: Twister Ribozyme (parent)
chain: AACACUGCCAAUGCCGGUCCCAAGCCCGGAUAAAAGUGGAGGGGGCGG

Variants of: B1
Assay: self-cleavage, relative activity (ratio to wild type); higher = more cleavage; co-transcriptional

In order of falling self-cleavage:
1. A1G G16C  0.561
2. A1G G48C  0.524
3. A1G A33C  0.462
4. A1G  0.461
5. A1G A30U  0.436
6. A2G C46U  0.416
7. A1G G29U  0.358
8. A1G C20U  0.35
9. A2G G29U  0.344
10. A1G C26G  0.334
11. A2G A10C  0.322
12. A2G A10G  0.312
13. A1G G44A  0.309
14. A1G U37A  0.307
15. A2G G16U  0.301
16. A1G U37G  0.295
17. A1G G45U  0.274
18. A1G C20A  0.273
19. A1C A33U  0.268
20. A1G C8G  0.262
21. A1G A22U  0.255
22. A1G C19A  0.247
23. A1G C8U  0.245
24. A1G C26A  0.244
25. A1C C9G  0.23
26. A1C A32U  0.228
27. A1G C9A  0.226
28. A1G C25U  0.222
29. A1C G45U  0.22
30. A1G G7A  0.216
31. A2G C21G  0.215
32. A2G G29A  0.214
33. A2G G16A  0.208
34. A1G A23C  0.202
35. A1G A30C  0.198
36. A1C C8A  0.196
37. A1C C8U  0.193
38. A1C C25U  0.192
39. A1C A32C  0.188
40. A2G G29C  0.188
41. A1G C26U  0.188
42. A1C C20U  0.187
43. A1G G41C  0.186
44. A1C G45A  0.184
45. A1C G28U  0.183
46. A1C A32G  0.18
47. A1G G41A  0.176
48. A1C G45C  0.176
49. A1C  0.175
50. A1C G28A  0.174
51. A1G C5G  0.172
52. A1C G17A  0.172
53. A1C G24C  0.168
54. A1C G48C  0.168
55. A1C G17U  0.166
56. A1G A22G  0.165
57. A2G A11G  0.164
58. A1C G48A  0.164
59. A1G G24U  0.163
60. A1C C3G  0.161
61. A1C G42A  0.16
62. A2G G42C  0.157
63. A1C G28C  0.155
64. A2G C5U  0.153
65. A2C A10G  0.151
66. A1C A22G  0.149
67. A2G C5G  0.144
68. A2G G41C  0.141
69. A1C G43C  0.141
70. A1C A22U  0.14
71. A1G G7U  0.137
72. A1C G43A  0.135
73. A2G A22U  0.133
74. A1C C25G  0.13
75. A2G A22C  0.129
76. A2G C25U  0.128
77. A1C G13A  0.12
78. A2G A4U  0.117
79. A2G C20U  0.115
80. A2C A34C  0.108
81. A2C A11U  0.108
82. A2G A22G  0.107
83. A2C G44A  0.107
84. A2C A30G  0.105
85. A2G G36C  0.105
86. A2C G38A  0.102
87. A2C A32U  0.101
88. A2C A32C  0.1
89. A2G C20G  0.0997
90. A1U C3G  0.0927
91. A1U A23C  0.09
92. A1C C20G  0.0894
93. A2C U31C  0.0894
94. A2C C21A  0.0892
95. A2G G36U  0.0889
96. A1U C3U  0.0886
97. A1U C25U  0.0883
98. A1U G29C  0.0876
99. A2G G7C  0.087
100. A1U C8U  0.087
101. A1U C26A  0.086
102. A2C C14A  0.0856
103. A1U G29U  0.0849
104. A1U A2U  0.0794
105. A2C G44U  0.0787
106. A1U C5U  0.076
107. A1U A23G  0.0754
108. A2C A34U  0.0746
109. A1U G39U  0.0746
110. A1U A30G  0.074
111. A2C A23U  0.0734
112. A1U A34U  0.0731
113. A1U A4C  0.0725
114. A2G C19A  0.0723
115. A2C A32G  0.0723
116. A1U A33G  0.0708
117. A1U A34G  0.0704
118. A1U G36U  0.0701
119. A2C A40C  0.07
120. A2G G7A  0.07
121. A1U C8A  0.0697
122. A2G G17U  0.0694
123. A2G C21A  0.0688
124. A1U G13A  0.0679
125. A1U A35U  0.0666
126. A1U C19G  0.0665
127. A2C A30U  0.0662
128. A1U A30C  0.0658
129. A2G C20A  0.0649
130. A1U C27G  0.0626
131. A2C G38U  0.0613
132. A1U A32U  0.0613
133. A2C C19U  0.0609
134. A2C U37A  0.0604
135. A1U G7A  0.0601
136. A2C A23G  0.06
137. A1U  0.0597
138. A2C C27U  0.0597
139. A1U C27U  0.0591
140. A2C A40G  0.059
141. A1U G7U  0.059
142. A2G C5A  0.0588
143. A1U C5A  0.0587
144. A2C G7C  0.0586
145. A1U C19A  0.0579
146. A1U C25G  0.0576
147. A1U G42C  0.0572
148. A1U A32C  0.057
149. A1U G13U  0.0563
150. A2C U31A  0.0563
151. A2C U6C  0.0549
152. A2C C27G  0.0549
153. A1U G13C  0.0521
154. A2C C14G  0.0512
155. A1U A32G  0.0499
156. A2C A35U  0.0477
157. A2C G13A  0.0468
158. A2C G38C  0.0461
159. A1U G36C  0.0449
160. A2C G7A  0.0438
161. A2G A4C  0.0432
162. A2C A11C  0.0419
163. A1U C19U  0.0395
164. A2C A40U  0.0387
165. A2C U37C  0.0354
166. A1U C8G  0.0353
167. A1U C15U  0.0337
